# Assay results: patent US20240279321A1 (THERINI BIO, published 2024)
# Where no end group is shown, it is not given here. The star is where a group is joined. Biotin = O=C1N[C@H]2[C@H](CS[C@H]2CCCCC(=O)*)N1
# T1: Human fibrin γ377-395 (Human P2 peptide) (human)
# T1 construct: In the crystal models, residues 410-421 of chain A are ordered; also called fibrin P2 peptide; fibrin P2 gamma peptide
# T1 peptide: Biotin-YSMKKTTMKIIPFNRLTIG
# T2: Rat P2 peptide (rat)
# T2 construct: also called Mouse/Rat P2 peptide
# T2 peptide: YSMKETTMKIIPFNRLSIG
# T3: Rat P2 peptide extended (rat)
# T3 construct: also called rat extended P2 peptide
# T3 peptide: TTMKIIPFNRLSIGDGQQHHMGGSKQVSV
# T4: Human P2 peptide extended (human)
# T4 construct: also called human extended P2 peptide
# T4 peptide: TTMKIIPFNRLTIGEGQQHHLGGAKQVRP
# T5: NP2 (Rabbit) (not fully specified (N-terminus))
# T5 construct: 'N-P2' elsewhere in the drawings stands for the N-term biotinylated P2 peptide; also called Rabbit P2 peptide; NP2 Fab (Rabbit) in the legend box of panel A
# T5 peptide: YSMKKTTMKIIPLNRLSIG
# T6: Ext NP2 (Rabbit)
# T6 construct: also called Rabbit P2 peptide extended
# T6 peptide: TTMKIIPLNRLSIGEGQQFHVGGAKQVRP
# B1: antibody clone 60143 (full length ADI-60143 IgG) (antibody, V domains shown)
# VH: QVQLVQSGAEVKKPGASVKVSCKASGYTFTSTWIHWVRQAPGQGLEWIGLIDPSDSYTNYNQKFRGRATLTVDTSTSTAYMELSSLRSEDTAVYYCASSKPTGGWGQGTTVTVSS
# VL: DIVMTQSPLSLPVTPGEPASISCRSSKSLLHSSGITYLSWYLQKPGQSPQLLIYQMSNLASGVPDRFSGSGSGTDFTLKISRVEAEDVGVYYCAQNLELPLTFGGGTKVEIKR
# B2: Fab of antibody clone 60143 (ADI-60143 Fab) (Fab, V domains shown)
# VH: B1 VH
# VL: B1 VL
# notes: The crystal model holds chain H residues 1-127 and 134-214 and chain L residues 1-213; not shown: The papain cleavage limit is not stat
# Legend:
# [1] = target: T1, Human fibrin γ377-395 (Human P2 peptide); assay: ELISA of ADI-60143 IgG on NP2 peptide (human), RFU readout; drawn table, column Human
# Rat P2 peptide [2] = target: T2, Rat P2 peptide; assay: ELISA of ADI-60143 IgG on NP2 peptide (rat), RFU readout; drawn table, column Rat
# Rat P2 peptide extended = target: T3, Rat P2 peptide extended; assay: ELISA of ADI-60143 IgG on Ext NP2 peptide (rat), RFU readout; drawn table, column Rat; the curve has no upper plateau at 500 nM
# [3] = target: T1, Human fibrin γ377-395 (Human P2 peptide); assay: ELISA (N-P2 ELISA), RFU readout
# [4] = target: T4, Human P2 peptide extended; assay: ELISA of ADI-60143 IgG on Ext NP2 peptide (human), RFU readout; drawn table, column Human
# NP2 (Rabbit) [5] = target: T5, NP2 (Rabbit); assay: ELISA of ADI-60143 IgG on NP2 peptide (rabbit), RFU readout; drawn table, column Rabbit
# Ext NP2 (Rabbit) = target: T6, Ext NP2 (Rabbit); assay: ELISA of ADI-60143 IgG on Ext NP2 peptide (rabbit), RFU readout; drawn table, column Rabbit
# Rat P2 peptide [6] = target: T2, Rat P2 peptide; assay: ELISA of ADI-60143 Fab on NP2 peptide (rat), RFU readout; drawn table, column Rat
# [7] = target: T1, Human fibrin γ377-395 (Human P2 peptide); assay: ELISA of ADI-60143 Fab on NP2 peptide (human), RFU readout; drawn table, column Human
# [8] = target: T1, Human fibrin γ377-395 (Human P2 peptide); assay: BLI (Octet): N-term biotinylated P2G peptide on SA sensor, 100nM Fab in solution; the same panel stands twice in the middle row
# NP2 (Rabbit) [9] = target: T5, NP2 (Rabbit); assay: ELISA of ADI-60143 Fab on NP2 peptide (rabbit), RFU readout; drawn table, column Rabbit
# [10] = target: T1, Human fibrin γ377-395 (Human P2 peptide); assay: BLI (Octet RED384), Fab on P2 peptide; on-rate phase 0-300 s, off-rate phase 300-600 s
Binder,EC50 [1] [nM],EC50 (Rat P2 peptide [2]) [nM],EC50 (Rat P2 peptide extended) [nM],EC50 [3] [nM],EC50 [4] [nM],EC50 (NP2 (Rabbit) [5]) [nM],EC50 (Ext NP2 (Rabbit)) [nM],EC50 (Rat P2 peptide [6]) [nM],EC50 [7] [nM],Kd [8] [nM],EC50 (NP2 (Rabbit) [9]) [nM],Kd [10] [nM]
B1,0.11,0.094,139,0.08,7.25,0.082,5.97,–,–,–,–,–
B2,–,–,–,–,–,–,–,1.78,0.34,23,0.67,70
